Reference: the supplement of paper PMC5998384

Experiments:
HeLa Kyoto [1] = assay: melting temperature (median over replicates), in situ; higher = more thermally stable
HeLa Kyoto [2] = assay: thermal stability score vs G1/S (z-score of summed log2 fold changes over temperatures); higher = more thermally stable than in G1/S
HeLa Kyoto [3] = assay: solubility change mitosis vs G1/S (difference of NP-40 vs SDS log2 ratios) (log2 ratio difference); higher = more soluble in mitosis
HeLa Kyoto [4] = assay: solubility in G1/S (NP-40 vs SDS abundance) (log2 ratio); higher = more soluble; conditions: cell cycle stage: G1/S
[5] = cell cycle stage: early G1 (4.5 h after nocodazole release)
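Throughout, for melting temperature (median over replicates), in situ: HeLa Kyoto cells synchronized by double thymidine or nocodazole block, proteins quantified by TMT10plex mass spectrometry, three independent biological replicates.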
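Throughout, for solubility change mitosis vs G1/S (difference of NP-40 vs SDS log2 ratios): synchronized HeLa Kyoto cells (double thymidine block for G1/S, nocodazole release for mitosis), protein amounts in NP-40 versus SDS lysates quantified by mass spectrometry, three biological replicates.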
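Throughout, for solubility in G1/S (NP-40 vs SDS abundance): HeLa Kyoto cells arrested at G1/S by double thymidine block, proteins quantified by TMT10plex mass spectrometry in mild NP-40 versus SDS extracts, three biological replicates.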
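Throughout, for thermal stability score vs G1/S (z-score of summed log2 fold changes over temperatures): synchronized HeLa Kyoto cells, proteins quantified by TMT10plex mass spectrometry, three biological replicates, mitosis taken 0.5 h after nocodazole release, G1/S directly after double thymidine block.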

Sequence | melting temperature (HeLa Kyoto [1]; cell cycle stage: G1/S) | melting temperature (HeLa Kyoto [1]; cell cycle stage: mitosis) | thermal stability score (HeLa Kyoto [2]; [5]) | thermal stability score (HeLa Kyoto [2]; cell cycle stage: mitosis) | solubility change mitosis (log2) (HeLa Kyoto [3]) | solubility in G1/S (log2) (HeLa Kyoto [4])
MAGSRLPRQLFLQGVAAVFMFAFASLYTQIPGLYGPEGILPARRTLRPQGKGRWQQLWETPTLLWEAPRLGLDTAQGLELLSLLGALVALGALLLSPLRHPVIYLLLWAAYLSACQVGQVFLYFQWDSLLLETGFLAVLVAPLRPASHRKEAPQGRQAGALPHEDLPFWLVRWLLFRLMFASGVVKLTSRCPAWWGLTALTYHYETQCLPTPAAWFAHHLPVWLHKLSVVATFLIEIAVPPLFFAPIRRLRLAAFYSQVLLQVLIIITGNYNFFNLMTLVLTTALLDDQHLAAEPGHGSRKKTATSWPKALLATLSLLLELAVYGLLAYGTVHYFGLEVDWQQRTIHSRTTFTFHQFSQWLKTLTLPTVWLGVASLVWELLSALWRWTQVRGWLRKLSAVVQLSLVGTATVALFLISLVPYSYVEPGTHGRLWTGAHRLFGAVEHLQLANSYGLFRRMTGLGGRPEVVLEGSYDGHHWTEIEFMYKPGNLSRPPPVVVPHQPRLDWQMWFAALGPHTHSPWFTSLVLRLLQGKEPVIRLVQSQVARYPFHKQPPTYVRAQRYKYWFSQPGEQGQWWRRQWVEEFFPSVSLGDPTLETLLRQFGLQEKSPPRTRSANSTLAQALHWTRSQLSPLEAPALLWGLLMAVGAVRFVQALLAPCSLRSSPLAPVSGEKRRPASQKDSGAASEQATAAPNPCSSSSRTTRRKK [LMF2] | 51.9 °C | 52.8 °C | -0.462 | -1.11 | -0.0691 | -0.171
MAGSVADSDAVVKLDDGHLNNSLSSPVQADVYFPRLIVPFCGHIKGGMRPGKKVLVMGIVDLNPESFAISLTCGDSEDPPADVAIELKAVFTDRQLLRNSCISGERGEEQSAIPYFPFIPDQPFRVEILCEHPRFRVFVDGHQLFDFYHRIQTLSAIDTIKINGDLQITKLG [LGALSL] | 53.3 °C | 54 °C | 0.0977 | -0.222 | -0.16 | 0.36
MAGSYPEGAPAILADKRQQFGSRFLSDPARVFHHNAWDNVEWSEEQAAAAERKVQENSIQRVCQEKQVDYEINAHKYWNDFYKIHENGFFKDRHWLFTEFPELAPSQNQNHLKDWFLENKSEVCECRNNEDGPGLIMEEQHKCSSKSLEHKTQTPPVEENVTQKISDLEICADEFPGSSATYRILEVGCGVGNTVFPILQTNNDPGLFVYCCDFSSTAIELVQTNSEYDPSRCFAFVHDLCDEEKSYPVPKGSLDIIILIFVLSAVVPDKMQKAINRLSRLLKPGGMVLLRDYGRYDMAQLRFKKGQCLSGNFYVRGDGTRVYFFTQEELDTLFTTAGLEKVQNLVDRRLQVNRGKQLTMYRVWIQCKYCKPLLSSTS [METTL2B] | 48.6 °C | 48.9 °C | -0.391 | 1.29 | -0.231 | 0.19
MAGYKPVAIQTYPILGEKITQDTLYWNNYKTPVQIKEFGAVSKVDFSPQPPYNYAVTASSRIHIYGRYSQEPIKTFSRFKDTAYCATFRQDGRLLVAGSEDGGVQLFDISGRAPLRQFEGHTKAVHTVDFTADKYHVVSGADDYTVKLWDIPNSKEILTFKEHSDYVRCGCASKLNPDLFITGSYDHTVKMFDARTSESVLSVEHGQPVESVLLFPSGGLLVSAGGRYVKVWDMLKGGQLLVSLKNHHKTVTCLCLSSSGQRLLSGSLDRKVKVYSTTSYKVVHSFDYAASILSLALAHEDETIVVGMTNGILSVKHRKSEAKKESLPRRRRPAYRTFIKGKNYMKQRDDILINRPAKKHLELYDRDLKHFRISKALDRVLDPTCTIKTPEITVSIIKELNRRGVLANALAGRDEKEISHVLNFLIRNLSQPRFAPVLINAAEIIIDIYLPVIGQSPVVDKKFLLLQGLVEKEIDYQRELLETLGMMDMLFATMRRKEGTSVLEHTSDGFPENKKIES [UTP15] | 52.6 °C | 50.9 °C | -0.279 | -3.5 | 0.558 | -1.23
MAHAPARCPSARGSGDGEMGKPRNVALITGITGQDGSYLAEFLLEKGYEVHGIVRRSSSFNTGRIEHLYKNPQAHIEGNMKLHYGDLTDSTCLVKIINEVKPTEIYNLGAQSHVKISFDLAEYTADVDGVGTLRLLDAVKTCGLINSVKFYQASTSELYGKVQEIPQKETTPFYPRSPYGAAKLYAYWIVVNFREAYNLFAVNGILFNHESPRRGANFVTRKISRSVAKIYLGQLECFSLGNLDAKRDWGHAKDYVEAMWLMLQNDEPEDFVIATGEVHSVREFVEKSFLHIGKTIVWEGKNENEVGRCKETGKVHVTVDLKYYRPTEVDFLQGDCTKAKQKLNWKPRVAFDELVREMVHADVELMRTNPNA [GMDS] | 56.4 °C | 57.4 °C | -0.0264 | -1.35 | -0.00656 | -0.249
MAHCVTLVQLSISCDHLIDKDIGSKSDPLCVLLQDVGGGSWAELGRTERVRNCSSPEFSKTLQLEYRFETVQKLRFGIYDIDNKTPELRDDDFLGGAECSLGQIVSSQVLTLPLMLKPGKPAGRGTITVSAQELKDNRVVTMEVEARNLDKKDFLGKSDPFLEFFRQGDGKWHLVYRSEVIKNNLNPTWKRFSVPVQHFCGGNPSTPIQVQCSDYDSDGSHDLIGTFHTSLAQLQAVPAEFECIHPEKQQKKKSYKNSGTIRVKICRVETEYSFLDYVMGGCQINFTVGVDFTGSNGDPSSPDSLHYLSPTGVNEYLMALWSVGSVVQDYDSDKLFPAFGFGAQVPPDWQVSHEFALNFNPSNPYCAGIQGIVDAYRQALPQVRLYGPTNFAPIINHVARFAAQAAHQGTASQYFMLLLLTDGAVTDVEATREAVVRASNLPMSVIIVGVGGADFEAMEQLDADGGPLHTRSGQAAARDIVQFVPYRRFQNAPREALAQTVLAEVPTQLVSYFRAQGWAPLKPLPPSAKDPAQAPQA [CPNE1] | 52 °C | 51.9 °C | 0.0462 | 0.0377 | -0.134 | 0.146
MAHQTGIHATEELKEFFAKARAGSVRLIKVVIEDEQLVLGASQEPVGRWDQDYDRAVLPLLDAQQPCYLLYRLDSQNAQGFEWLFLAWSPDNSPVRLKMLYAATRATVKKEFGGGHIKDELFGTVKDDLSFAGYQKHLSSCAAPAPLTSAERELQQIRINEVKTEISVESKHQTLQGLAFPLQPEAQRALQQLKQKMVNYIQMKLDLERETIELVHTEPTDVAQLPSRVPRDAARYHFFLYKHTHEGDPLESVVFIYSMPGYKCSIKERMLYSSCKSRLLDSVEQDFHLEIAKKIEIGDGAELTAEFLYDEVHPKQHAFKQAFAKPKGPGGKRGHKRLIRGPGENGDDS [TWF2] | 53.6 °C | 53 °C | -0.101 | -1.11 | -0.23 | 0.275
MAHTTKVNGSASGKAGDILSGDQDKEQKDPYFVETPYGYQLDLDFLKYVDDIQKGNTIKRLNIQKRRKPSVPCPEPRTTSGQQGIWTSTESLSSSNSDDNKQCPNFLIARSQVTSTPISKPPPPLETSLPFLTIPENRQLPPPSPQLPKHNLHVTKTLMETRRRLEQERATMQMTPGEFRRPRLASFGGMGTTSSLPSFVGSGNHNPAKHQLQNGYQGNGDYGSYAPAAPTTSSMGSSIRHSPLSSGISTPVTNVSPMHLQHIREQMAIALKRLKELEEQVRTIPVLQVKISVLQEEKRQLVSQLKNQRAASQINVCGVRKRSYSAGNASQLEQLSRARRSGGELYIDYEEEEMETVEQSTQRIKEFRQLTADMQALEQKIQDSSCEASSELRENGECRSVAVGAEENMNDIVVYHRGSRSCKDAAVGTLVEMRNCGVSVTEAMLGVMTEADKEIELQQQTIESLKEKIYRLEVQLRETTHDREMTKLKQELQAAGSRKKVDKATMAQPLVFSKVVEAVVQTRDQMVGSHMDLVDTCVGTSVETNSVGISCQPECKNKVVGPELPMNWWIVKERVEMHDRCAGRSVEMCDKSVSVEVSVCETGSNTEESVNDLTLLKTNLNLKEVRSIGCGDCSVDVTVCSPKECASRGVNTEAVSQVEAAVMAVPRTADQDTSTDLEQVHQFTNTETATLIESCTNTCLSTLDKQTSTQTVETRTVAVGEGRVKDINSSTKTRSIGVGTLLSGHSGFDRPSAVKTKESGVGQININDNYLVGLKMRTIACGPPQLTVGLTASRRSVGVGDDPVGESLENPQPQAPLGMMTGLDHYIERIQKLLAEQQTLLAENYSELAEAFGEPHSQMGSLNSQLISTLSSINSVMKSASTEELRNPDFQKTSLGKITGNYLGYTCKCGGLQSGSPLSSQTSQPEQEVGTSEGKPISSLDAFPTQEGTLSPVNLTDDQIAAGLYACTNNESTLKSIMKKKDGNKDSNGAKKNLQFVGINGGYETTSSDDSSSDESSSSESDDECDVIEYPLEEEEEEEDEDTRGMAEGHHAVNIEGLKSARVEDEMQVQECEPEKVEIRERYELSEKMLSACNLLKNTINDPKALTSKDMRFCLNTLQHEWFRVSSQKSAIPAMVGDYIAAFEAISPDVLRYVINLADGNGNTALHYSVSHSNFEIVKLLLDADVCNVDHQNKAGYTPIMLAALAAVEAEKDMRIVEELFGCGDVNAKASQAGQTALMLAVSHGRIDMVKGLLACGADVNIQDDEGSTALMCASEHGHVEIVKLLLAQPGCNGHLEDNDGSTALSIALEAGHKDIAVLLYAHVNFAKAQSPGTPRLGRKTSPGPTHRGSFD [KANK1] | 49.3 °C | 49.4 °C | 0.397 | 2.14 | -0.0616 | -0.0496
